Laboratory results as given in US6372211B1, “Methods and compositions for controlling insects” (Monsanto Technolgy LLC, priority 1997, dated 2002).

Legend:
T. viride lysine oxidase [1] = settings: data from Kusakabe et al., 1980; cited from earlier work
F22844 lysine oxidase = assay: Substrate specificity of F22844 lysine oxidase; type: biochemical, Trichoderma sp.; settings: lysine = 100, L-isomers
Mr 50,000 protein = Mr 50,000 protein assay (hydrogen peroxide colorimetric); type: biochemical, Trichoderma sp.; settings: hydrogen peroxide formation monitored
Description: Hydrogen peroxide appears to be the byproduct of the Mr 50,000 protein reaction. The formation of hydrogen peroxide was monitored by a colorimetric assay (Gallo, 1981). P2C was prepared by two separate methods for the initial Mr 50,000 protein assay. The two methods used for preparing P2C were
1) L-lysine with lysine oxidase and catalase; and
2) DL-pipecolic acid with D-amino acid oxidase and catalase.
P2C was isolated from the protein mixture by filtration using an Amicon filter (10 kDa cutoff) before using in the Mr 50,000 protein assay.

T. viride lysine oxidase [2] = settings: read-out: Km for lysine, reported, Kusakabe et al., 1980; cited from earlier work
[3] = tested on: Trichoderma sp. F22844 L-lysine oxidase (Mr 56,000 protein, E.C. 1.4.3.14), native; proprotein SEQ ID NO:46; settings: read-out: Km for lysine; lysine oxidase from F22844
southern corn rootworm = assay: Southern corn rootworm artificial diet bioassay; type: in vivo; settings: for Mean larval wt. (mg) (+SEM) / # of survivors: Table 12, SCRW neonate, T. viride lysine oxidase 10 ppm, E. coli produced Mr 50,000 18 ppm; for Mean larval wt. (mg) (+SEM): buffer 0.68, 0.57; for # of survivors: buffer 51, 52
Description: These proteins were then purified by sizing and ion exchange chromatography. […] In both cases, no bioactivity was detected when the proteins were assayed individually but significant stunting was seen when the proteins were combined in assay.
Native-PAGE studies were effective in confirming that the Mr 56,000 and Mr 50,000 proteins were responsible for the southern corn rootworm bioactivity of F22844. The chromatographically purified Mr 56,000 and Mr 50,000 proteins were further purified by native PAGE. […] A sample containing a combination of the two proteins at concentrations of 9.7 μg/mL of Mr 56,000 and 2.5 μg/mL of Mr 50,000 yielded 89% stunting of corn rootworm larvae (Table 3). […]
(§1) These leads were not characterized further. […] Lysine oxidase from Trichoderma viride is available commercially from Sigma (St. Louis, Mo.). The enzyme was purified to a single band from this preparation and bioassayed against southern corn rootworm. Bioassays were conducted to compare the concentration responses of the T. viride lysine oxidase (±Mr 50,000 protein from F22844) with the lysine oxidase purified from F22844. The bioactivity of the T viride lysine oxidase agrees very well with the bioactivity of lysine oxidase from F22844 when bioassayed in the presence of tedanalactam synthase from F22844 (Table 10). Very similar stunting levels are seen at equivalent doses (compare Table 10 to Table 7). In addition, no bioactivity is seen with either lysine oxidase in the absence of tedanalactam synthase from F22844.
An NcoI-HindIII fragment containing the full length tedanalactam synthase cDNA gene (SEQ ID NO:40) from pMON25424 was interested into pMON6235, an E. coli expression vector containing an arabinose inducible promoter and G10 leader sequence to produce pMON25428 (FIG. 12). […] The relative migration of the expressed protein on SDS-PAGE was identical to the F22844 purified tedanalactam synthase. The recombinant tedanalactam synthase was purified in a 5 step procedure from E. coli expressing the tedanalactam synthase gene. Lysine oxidase was purified from a commercial preparation of T. viride lysine oxidase. Both the lysine oxidase and tedanalactam synthase were >95% pure by SDS-PAGE.

corn rootworm = assay: Corn rootworm bioassay (species not stated); type: in vivo, Diabrotica spp.; settings: Table 11, yeast recombinant lysine oxidase 14 ppm, F22844 Mr 50,000 10 ppm, alone or combined; for # of survivors: 16 wells/sample, buffer 61, 45; for Mean larval wt. (mg) (±SEM): buffer 0.94, 0.84
Description: as §1
(§2) Yeast (Saccharomyces cerevisiae) transformed with pMON25030 were grown in the presence of galactose and shown to produce enzymatically active lysine oxidase. Yeast transformed with pMON25030 had soluble lysine oxidase activity in both disrupted cell pellets and cell free culture media. […] Lysine oxidase from the yeast culture media was subsequently purified and shown to have bioactivity against corn rootworm when combined with tedanalactam synthase.

[4] = tested on: southern corn rootworm larvae; assay: Diet overlay assay with SCRW; type: in vivo; settings: for Av. Wght: Tris control 2.6
Source text: However, ingestion of LO69 expressing root tissue by CRW is likely to result in activation of lysine oxidase by proteolysis and subsequent insecticidal activity when the tedanalactam synthase protein is also present. […] The absence of LO activity in the proenzyme sample was confirmed by direct enzymatic assays just prior to exposure to insects.

[5] = Lysine oxidase enzymatic assay of enzyme preparations; type: biochemical; settings: purified lysine oxidase
Description: F22844 was identified taxonomically as a Trichoderma species.
as §2

[6] = tested on: proteases present in the midgut of southern corn rootworm; assay: Activation of LO69 proenzyme by midgut extract; type: biochemical
Source text: The lysine oxidase gene encodes a 69 kDa proenzyme which is N-terminally cleaved when expressed in Trichoderma or Saccharomyces to yield a mature and enzymatically active protein of approximately 60 kDa. To determine if the lysine oxidase-69 (LO69) proenzyme (Seq ID NO: 46) expressed in corn protoplasts can be activated by the proteases present in the midgut of southern corn rootworm, midguts were dissected from late instar larvae and the proteases extracted. Protease activity assays confirmed the presence of proteases in this extract. This extract and appropriate controls were incubated for about 22 hours at 25° C. with extracts from protoplasts electroporated with pMON25040 (i.e. the CaMV35S promoter and hsp70 intron fused to the 1.9 kb lysine oxidase gene encoding the Mr 69,000 proprotein, SEQ ID NO:45) and non-electroporated controls and assayed for lysine oxidase activity.

[7] = Table 2a, Mr 56,000 10 μg/mL, Mr 50,000 1.5 μg/mL, alone or combined, NSS = not statistically significant
[8] = Table 3, native PAGE purified, Mr 56,000 9.7 μg/mL, Mr 50,000 2.5 μg/mL, alone or combined
[9] = second table headed TABLE 2a, Mr 56,000 10 μg/mL, Mr 50,000 1.5 μg/mL, NSS = not statistically significant
[10] = each protein at 2 ppm, of larval weight vs control
[11] = single protein at 10 ppm, 50 kD activity ascribed to low level LO contamination

N=C(N)NCCC[C@H](N)C(=O)O [Arginine]
Relative activity (%) (T. viride lysine oxidase [1]): 6.1% | Relative activity (%) (F22844 lysine oxidase): 2.6%

N[C@@H](Cc1c[nH]cn1)C(=O)O [Histidine]
Relative activity (%) (T. viride lysine oxidase [1]): 3.8% | Relative activity (%) (F22844 lysine oxidase): 5.0%

NCCCC[C@H](N)C(=O)O [Lysine]
substrate of Mr 50,000 protein (Mr 50,000 protein): not substrates | Relative activity (%) (T. viride lysine oxidase [1]): 100% | Relative activity (%) (F22844 lysine oxidase): 100.0%

NCCC[C@H](N)C(=O)O [Ornithine]
Relative activity (%) (T. viride lysine oxidase [1]): 18.2% | Relative activity (%) (F22844 lysine oxidase): 10.8%

O=C(O)C1CCCC=N1 (centres unmarked) [P2C, Δ^1-piperideine-2-carboxylate]
substrate of Mr 50,000 protein (Mr 50,000 protein): catalyses the conversion of Δ^1-piperideine-2-carboxylate (P2C) to product I

N[C@@H](Cc1ccccc1)C(=O)O [Phenylalanine]
Relative activity (%) (T. viride lysine oxidase [1]): 8.3% | Relative activity (%) (F22844 lysine oxidase): 6.6%

O=C(O)C1CCCCN1 (centres unmarked) [Pipecolic acid]
substrate of Mr 50,000 protein (Mr 50,000 protein): not substrates

NCCCC[C@H](N)C(=O)O [lysine]
Km (T. viride lysine oxidase [2]): 40 µM | Km [3]: 26 µM

B1: Mr 50,000: Mr 50,000 protein from F22844, tedanalactam synthase converting Δ1-piperideine-2-carboxylate to tedanalactam (protein)
chain: MADEIYDVVVIGGGPIGLAAAYEAAKEGAKVVVLEQNNFFNHAGSSNDLARMFRTMYTEDYMADLAKEALALWDDLERDSGTPLRWMSGLLNFGDKDYGGDTPEGTLLGPIANLDRLGMTYQELSAKEIEARYPFKNLDPKYIGLFAPDNGLINVQLLLRTLYKLSLDYGATAKQHTKVQAIKPSNHSHYAWDVHAIRHETEAAVFKAKKIIIASGAYVNHVLKPSFDISLDLDIWEMVFSYFNCNAGPKGTIFPSMWFQFAPDKNGRSQLFYGFPALPWGPPNLARIAVDAATRRIKDPNERLTSTINPEDIADTQEFIRNHCVNVDPTIPALTSSCLQTNVFDNMFVLDFVPEKYLNGGAKDSVVVFTAGWAMKFVPMIGKALADMALKGSSPYARKEFAITRTDSATGKGIIVEGGSENRSVKSSAFVFYSPGIRFFVCRLP
% Stunting (southern corn rootworm; [7]): NSS | % Stunting (southern corn rootworm; [8]): NSS | Mean larval wt. (mg) (+SEM) (southern corn rootworm; alone or combined): 0.52 ± 0.03 mg | # of survivors (southern corn rootworm; alone or combined): 80 | % Stunting (southern corn rootworm; [9]): NSS | # of survivors (corn rootworm): 43 | Mean larval wt. (mg) (±SEM) (corn rootworm): 0.80 ± 0.07 mg | Av. Wght ([4]; each protein at 2 ppm): 3.5 mg | Surv ([4]; each protein at 2 ppm, n 18): 18 | % inhibition [4, 10]: 0% | Surv ([4]; single protein at 10 ppm): 18 | % inhibition [4, 11]: 39% | Av. Wght ([4]; single protein at 10 ppm): 1.5 mg

B2: L-lysine oxidase (protein)
chain: MDNVDFAESVRTRWARRLIREKVAKELNILTERLGEVPGIPPPNEGRFLGGGYSHDNLPSDPLYSSIKPALLKEAPRAEEELPPRKVCIVGAGVSGLYIAMILDDLKIPNLTYDIFESSSRTGGRLYTHHFTDAKHDYYDIGAMRYPDIPSMKRTFNLFKRTGMPLIKYYLDGENTPQLYNNHFFAKGVSDPYMVSVANGGTVPDDVVDSVGEKLQQAFGYYKEKLAEDFDKGFDELMLVDDMTTREYLKRGGPKGEAPKYDFFAIQWMETQNTGTNLFDQAFSESVIDSFDFDNPTKPEWYCIEGGTSLLVDAMKETLVHKVQNNKRVDAISIDLDAPDDGNMSVRIGGKDHSGYSTVFNTTALGCLDRMDLRGLNLHPTQADAIRCLHYDNSTKVALKFSYPWWIKDCGITCGGAASTDLPLRTCVYPSYNLDDTGEAVLLASYTWSQDATRIGSLVKDAPPQPPKEDELVELILQNLARLHAEHMTYEKIKEAYTGVYHAYCWANDPNVGGAFALFGPGQFSNLYPYLMRPAAGGKFHIVGEASSVHHAWIIGSLESAYTAVYQFLYKYKMWDYLRLLLERWQYGLQELETGKHGTAHLQFILGSLPKEYQVKI
notes: Mr 56,000 protein purified from Trichoderma sp; F22844 culture filtrate, identified as L-lysine oxidase
% Stunting (southern corn rootworm; [7]): NSS | % Stunting (southern corn rootworm; [8]): NSS | Mean larval wt. (mg) (+SEM) (southern corn rootworm; alone or combined): 0.48 ± 0.04 mg | # of survivors (southern corn rootworm; alone or combined): 46 | % Stunting (southern corn rootworm; [9]): NSS | # of survivors (corn rootworm): 38 | Mean larval wt. (mg) (±SEM) (corn rootworm): 0.76 ± 0.06 mg | specific activity [5]: 37 U/mg protein

B3: LO69: 69 kDa lysine oxidase proenzyme (SEQ ID NO: 46); corn protoplast extract in Table 20, purified from Saccharomyces cerevisiae in Table 21 (protein)
chain: B2 chain
Av. Wght ([4]; each protein at 2 ppm): 2.1 mg | Surv ([4]; each protein at 2 ppm, n 18): 17 | % inhibition [4, 10]: 20% | Surv ([4]; single protein at 10 ppm): 17 | % inhibition [4, 11]: 0% | Av. Wght ([4]; single protein at 10 ppm): 3.3 mg | % inhibition ([4]; single protein at 20 ppm): 0% | Av. Wght ([4]; single protein at 20 ppm): 2.8 mg | Surv ([4]; single protein at 20 ppm, n 18): 18 | Lysine oxidase Sp. Act. ([6]; BSA): 12 U/μg protein | Fold Difference ([6]; BSA, relative to heated gut extract): 1.2 | Lysine oxidase Sp. Act. ([6]; corn protoplast extract, gut extract, about 22 hours at 25° C.): 1292 U/μg protein | Lysine oxidase Sp. Act. ([6]; gut extract, protease inhibitor): 997 U/μg protein | Fold Difference ([6]; gut extract, protease inhibitor, relative to heated gut extract): 97 | Fold Difference ([6]; gut extract, relative to LO69 with heated gut extract): 130 | Lysine oxidase Sp. Act. ([6]; heated gut extract): 10 U/μg protein | Fold Difference ([6]; heated gut extract (reference)): 0
